# Source: US20250155457A1 (DIAGNOSTICA STAGO, published 2025)
# T1: exogenous platelet factor 4 (PF4), heparin-modified (PF4/heparin complex) (UniProt P02776 32-101)
# T1 sequence (looked up): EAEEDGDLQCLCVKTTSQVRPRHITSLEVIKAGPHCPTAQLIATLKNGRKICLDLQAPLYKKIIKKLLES
# Columns and labels:
# Experiment in all cases: cell-based or functional assay
# [1] = target: T1, exogenous platelet factor 4 (PF4), …
# [2] = target: T1, exogenous platelet factor 4 (PF4), …; remark: listed apart in the source
# [3] = target: T1, exogenous platelet factor 4 (PF4), …; remark: listed apart in the source
# [4] = target: T1, exogenous platelet factor 4 (PF4), …; remark: listed apart in the source
# [5] = target: T1, exogenous platelet factor 4 (PF4), …; remark: listed apart in the source
# [6] = target: T1, exogenous platelet factor 4 (PF4), …; remark: listed apart in the source
# [7] = target: T1, exogenous platelet factor 4 (PF4), …; remark: listed apart in the source
# [8] = target: T1, exogenous platelet factor 4 (PF4), …; remark: listed apart in the source
# [9] = target: T1, exogenous platelet factor 4 (PF4), …; remark: listed apart in the source
# [10] = target: T1, exogenous platelet factor 4 (PF4), …; remark: listed apart in the source
# [11] = target: T1, exogenous platelet factor 4 (PF4), …; remark: listed apart in the source
# [12] = target: T1, exogenous platelet factor 4 (PF4), …; remark: listed apart in the source
binder,measurement,setting,value
"chimeric monoclonal antibody 5B9 (antibody, V domains shown) VH: DVQLQESGPDLVKPSQSLSLTCTVTGYSITSGYSWHWIRQFPGNKLEWMGYIHYSGSTNYNPSLKSRISITRDTSKNQFFLQLNSVTTEDTATYYCARELRLRYFDVWGAGTTVTVSS VL: EIVLTQSPTTMAASPGEKITITCSASSSISSNYLHWYQQKPGFSPKLLIYRTSNLASGVPARFSGSGSGTSYSLTIGTMEAEDVATYYCQQGSSIPLTFGAGTKLELKR","VS series activation ratio, CD62P labeling, patient 1 whole blood (max % x MFI with 5B9 + PF4 + low heparin over basal)",[1],300 ratio
same,"VS series inhibition ratio, CD62P labeling, patient 1 whole blood (heparin 100 IU/ml)",[1],0.88 ratio
same,"VS series activation ratio, CD62P labeling, patient 2 whole blood",[2],13.2 ratio
same,"VS series inhibition ratio, CD62P labeling, patient 2 whole blood (heparin 100 IU/ml)",[2],0.9 ratio
same,"VS series activation ratio, Annexin V labeling, patient 1 whole blood",[3],95.9 ratio
same,"VS series inhibition ratio, Annexin V labeling, patient 1 whole blood (heparin 100 IU/ml)",[3],0.85 ratio
same,"VS series activation ratio, Annexin V labeling, patient 2 whole blood",[4],11.3 ratio
same,"VS series inhibition ratio, Annexin V labeling, patient 2 whole blood (heparin 100 IU/ml)",[4],0.65 ratio
same,"VS series activation ratio, CD62P labeling, patient 3 whole blood",[5],94.2 ratio
same,"VS series inhibition ratio, CD62P labeling, patient 3 whole blood (heparin 100 IU/ml)",[5],0.57 ratio
same,"VS series activation ratio, CD62P labeling, patient 4 whole blood",[6],281 ratio
same,"VS series inhibition ratio, CD62P labeling, patient 4 whole blood (heparin 100 IU/ml)",[6],0.94 ratio
same,"VS series activation ratio, CD62P labeling, patient 5 whole blood",[7],52.7 ratio
same,"VS series inhibition ratio, CD62P labeling, patient 5 whole blood (heparin 100 IU/ml)",[7],0.84 ratio
same,"VS series activation ratio, CD62P labeling, patient 6 whole blood",[8],117 ratio
same,"VS series inhibition ratio, CD62P labeling, patient 6 whole blood (heparin 100 IU/ml)",[8],0.94 ratio
same,"VS series activation ratio, Annexin V labeling, patient 3 whole blood",[9],21.7 ratio
same,"VS series inhibition ratio, Annexin V labeling, patient 3 whole blood (heparin 100 IU/ml)",[9],0.74 ratio
same,"VS series activation ratio, Annexin V labeling, patient 4 whole blood",[10],412 ratio
same,"VS series inhibition ratio, Annexin V labeling, patient 4 whole blood (heparin 100 IU/ml)",[10],0.95 ratio
same,"VS series activation ratio, Annexin V labeling, patient 5 whole blood",[11],8.6 ratio
same,"VS series inhibition ratio, Annexin V labeling, patient 5 whole blood (heparin 100 IU/ml)",[11],0.61 ratio
same,"VS series activation ratio, Annexin V labeling, patient 6 whole blood",[12],26.5 ratio
same,"VS series inhibition ratio, Annexin V labeling, patient 6 whole blood (heparin 100 IU/ml)",[12],0.75 ratio
